# Biological target: the molecule itself
# Experiment: crystal structure
protein,measurement,value
"dCaprin fragment (residues 187-309), dimerization domain of Drosophila melanogaster Caprin (domain or fragment, Se-Met labelled (L-seleno-methionine in place of methionine) in the crystal used for the structure) GPSSPSRKDNLAKTIAETAKIREVLIIQNVLNCFNDDQVRSDFLNGENGAKKLENTELELLEKFFIETQTRRPETADDVSFIATAQKSAELFYSTINARPKSFGEVSFEKLRSLFQQIQDSGYLDKYYL",stoichiometry N,2
